According to US20250136717A1 (BYONDIS B V, published 2025):
Where two headings read alike, the source gives them in different places.

Experiments:
[1] = biological target: T1, Biotinylated Human TROP2/TACSTD2 Protein, His Avitag, Cat. No. TR2-H82E5 (human, UniProt P09758 27-274, biotinylated); experiment: BLI, TROP2 on SAX tips
T1 construct: immobilized on SAX biosensor tips
T1 sequence (looked up): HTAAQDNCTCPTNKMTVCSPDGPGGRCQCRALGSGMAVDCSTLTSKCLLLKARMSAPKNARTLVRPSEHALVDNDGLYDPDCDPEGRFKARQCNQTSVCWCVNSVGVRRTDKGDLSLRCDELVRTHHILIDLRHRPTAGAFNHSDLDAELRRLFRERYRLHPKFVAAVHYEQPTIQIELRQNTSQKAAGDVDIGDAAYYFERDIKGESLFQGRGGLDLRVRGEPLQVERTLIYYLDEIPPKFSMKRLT
Excerpt: (§1) To correct for differences in concentration between the analyte stocks, Protein A binding was estimated for the same samples.
(§2) The 70s report point corresponds to 10s of association, since a baseline is created in the first 60 seconds.

[2] = biological target: T1, Biotinylated Human TROP2/TACSTD2 …; experiment: BLI, TROP2 signal over Protein A signal
Excerpt: as §1, §2

[3] = biological target: T2, Protein A (Protein A sensor tips, Forte Bio, 18-5012) (UniProt P38507 37-327); experiment: BLI, Protein A tips
T2 construct: used to correct for the concentration of the antibody samples
Excerpt: as §1, §2

[4] = biological target: T3, Biotinylated Human EpCAM/TROP1 Protein, Avitag His tag, Cat. No. EPM-H82E8 (human, UniProt P16422 24-265, biotinylated); experiment: BLI, EpCAM signal over Protein A signal
T3 construct: immobilized on SAX biosensor tips
T3 sequence (looked up): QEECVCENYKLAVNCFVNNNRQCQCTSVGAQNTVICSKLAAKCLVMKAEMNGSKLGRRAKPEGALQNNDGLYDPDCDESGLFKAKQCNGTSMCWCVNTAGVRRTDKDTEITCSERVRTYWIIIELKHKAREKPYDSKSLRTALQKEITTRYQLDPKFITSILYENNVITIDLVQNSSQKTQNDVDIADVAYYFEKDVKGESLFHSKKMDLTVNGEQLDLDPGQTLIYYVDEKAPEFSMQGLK
Excerpt: as §1, §2

[5] = biological target: T2, Protein A (Protein A sensor tips, Forte …); experiment: BLI, Protein A tips; remark: listed apart in the source
Excerpt: as §1, §2

[6] = biological target: T3, Biotinylated Human EpCAM/TROP1 Protein, …; experiment: BLI, EpCAM on SAX tips
Excerpt: as §1, §2

[7] = biological target: T2, Protein A (Protein A sensor tips, Forte …); experiment: BLI, Protein A tips; remark: listed apart in the source
Excerpt: as §1

[8] = biological target: T2, Protein A (Protein A sensor tips, Forte …); experiment: BLI, Protein A tips; remark: listed apart in the source
Excerpt: as §1, §2

[9] = biological target: T3, Biotinylated Human EpCAM/TROP1 Protein, …; experiment: BLI, EpCAM signal over Protein A signal; remark: listed apart in the source
Excerpt: as §1, §2

[10] = biological target: T3, Biotinylated Human EpCAM/TROP1 Protein, …; experiment: BLI, EpCAM on SAX tips; remark: listed apart in the source
Excerpt: as §1, §2

[11] = biological target: T2, Protein A (Protein A sensor tips, Forte …); experiment: BLI, Protein A tips; remark: listed apart in the source
Excerpt: as §1

[12] = biological target: T4, Human Coagulation Factor III/Tissue Factor Protein, His Tag, Cat. No. TF3-H52H5 (human, UniProt P13726 33-251); experiment: BLI, TF signal over Protein A signal
T4 construct: immobilized on Ni-NTA biosensor tips
Excerpt: as §1

[13] = biological target: T4, Human Coagulation Factor III/Tissue …; experiment: BLI, TF on Ni-NTA tips
Excerpt: as §1

T4 sequence (P13726 33-251 limits assumed): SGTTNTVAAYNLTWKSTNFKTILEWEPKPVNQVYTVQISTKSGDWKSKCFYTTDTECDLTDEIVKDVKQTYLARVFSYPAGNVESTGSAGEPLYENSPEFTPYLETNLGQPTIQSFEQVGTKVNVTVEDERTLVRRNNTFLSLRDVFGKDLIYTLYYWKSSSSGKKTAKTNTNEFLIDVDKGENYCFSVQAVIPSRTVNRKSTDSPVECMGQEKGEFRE

B1: S307 (antibody, human IgG1, kappa)
heavy: not shown
light: QVQLVESGGGLVQPGGSLTLSCTASGFTLDHYDIGWFRQAPGKEREGVSCINNSDDDTYYADSVKGRFTIFMNNAKDTVYLQMNSLKPEDTAIYYCAEARGCKRGRYEYDFWGQGTQVTVSSGGGGSPLGLAGGGSDIQLTQSPSSLSASVGDRVSITCKASQDVSIAVAWYQQKPGKAPKLLIYSASYRYTGVPDRFSGSGSGTDFTLTISSLQPEDFAVYYCQQHYITPLTFGAGTKVEIKRTVAAPSVFIFPPSDEQLKSGTASVVCLLNNFYPREAKVQWKVDNALQSGNSQESVTEQDSKDSTYSLSSTLTLSKADYEKHKVYACEVTHQGLSSPVTKSFNRGEC
notes: also called masked sacituzumab Qg-BC2T-L9-HC / BC2-Nb-L9-LC
TROP2 binding after 10 s of association [1]: 0.0345 nm
TROP2/Protein A * 1000 [2]: 31.1
Protein A binding after 10 s of association [3]: 1.11 nm

B2: S308 (antibody, human IgG1, kappa)
heavy: not shown
light: B1 light
notes: also called masked P41C sacituzumab Qg-BC2T-L9-HC (P41C) / BC2-Nb-L9-LC
TROP2 binding after 10 s of association [1]: 0.0154 nm
TROP2/Protein A * 1000 [2]: 23.8
Protein A binding after 10 s of association [3]: 0.646 nm

B3: S306 (antibody, human IgG1, kappa)
heavy: not shown
light: DIQLTQSPSSLSASVGDRVSITCKASQDVSIAVAWYQQKPGKAPKLLIYSASYRYTGVPDRFSGSGSGTDFTLTISSLQPEDFAVYYCQQHYITPLTFGAGTKVEIKRTVAAPSVFIFPPSDEQLKSGTASVVCLLNNFYPREAKVQWKVDNALQSGNSQESVTEQDSKDSTYSLSSTLTLSKADYEKHKVYACEVTHQGLSSPVTKSFNRGEC
notes: also called Anti-TROP2 sacituzumab hRS7 (naked)
TROP2 binding after 10 s of association [1]: 0.749 nm
TROP2/Protein A * 1000 [2]: 818
Protein A binding after 10 s of association [3]: 0.915 nm

B4: S300 (antibody, human IgG1, kappa)
heavy: not shown
light: DIVMTQSALSNPVTLGESGSISCRSSKSLLHSNGITYLYWYLQKPGQSPQLLIYQMSNRASGVPDRFSSSGSGTDFTLKISRVEAEDVGVYYCAQNLELPRTFGQGTKLEMKRTVAAPSVFIFPPSDEQLKSGTASVVCLLNNFYPREAKVQWKVDNALQSGNSQESVTEQDSKDSTYSLSSTLTLSKADYEKHKVYACEVTHQGLSSPVTKSFNRGEC
notes: also called Anti-EpCAM ING-1 (naked)
EpCAM/Protein A * 1000 [4]: 997
Protein A binding after 10 s of association [5]: 0.95 nm
EpCAM binding after 10 s of association [6]: 0.947 nm

B5: S310 (antibody, human IgG1, kappa)
heavy: not shown
light: QVQLVESGGGLVQPGGSLTLSCTASGFTLDHYDIGWFRQAPGKEREGVSCINNSDDDTYYADSVKGRFTIFMNNAKDTVYLQMNSLKPEDTAIYYCAEARGCKRGRYEYDFWGQGTQVTVSSGGGGSPLGLAGGGSDIQMTQSPSSLSASVGDRVTITCKASQDIRKYLNWYQQKPGKAPKLLIYYATSLADGVPSRFSGSGSGTDYTFTISSLQPEDIATYYCLQHGESPYTFGQGTKLEITRTVAAPSVFIFPPSDEQLKSGTASVVCLLNNFYPREAKVQWKVDNALQSGNSQESVTEQDSKDSTYSLSSTLTLSKADYEKHKVYACEVTHQGLSSPVTKSFNRGEC
notes: also called masked MORAb-066 Qg-BC2T-L9-HC / BC2-Nb-L9-LC
Protein A binding after 10 s of association [7]: 0.993 nm

B6: S311 (antibody, human IgG1, kappa)
heavy: not shown
light: B5 light
notes: also called masked P41C MORAb-066 Qg-BC2T-L9-HC (P41C) / BC2-Nb-L9-LC
Protein A binding after 10 s of association [7]: 1.33 nm

B7: S301 (antibody, human IgG1, kappa)
heavy: not shown
light: QVQLVESGGGLVQPGGSLTLSCTASGFTLDHYDIGWFRQAPGKEREGVSCINNSDDDTYYADSVKGRFTIFMNNAKDTVYLQMNSLKPEDTAIYYCAEARGCKRGRYEYDFWGQGTQVTVSSGGGGSPLGLAGGGSDIVMTQSALSNPVTLGESGSISCRSSKSLLHSNGITYLYWYLQKPGQSPQLLIYQMSNRASGVPDRFSSSGSGTDFTLKISRVEAEDVGVYYCAQNLELPRTFGQGTKLEMKRTVAAPSVFIFPPSDEQLKSGTASVVCLLNNFYPREAKVQWKVDNALQSGNSQESVTEQDSKDSTYSLSSTLTLSKADYEKHKVYACEVTHQGLSSPVTKSFNRGEC
notes: also called masked ING-1 Qg-BC2T-L9-HC / BC2-Nb-L9-LC
EpCAM/Protein A * 1000 [4]: 137
Protein A binding after 10 s of association [5]: 0.541 nm
EpCAM binding after 10 s of association [6]: 0.074 nm

B8: S302 (antibody, human IgG1, kappa)
heavy: not shown
light: B7 light
notes: also called masked P41C ING-1 Qg-BC2T-L9-HC (P41C) / BC2-Nb-L9-LC
EpCAM/Protein A * 1000 [4]: 129
Protein A binding after 10 s of association [5]: 0.275 nm
EpCAM binding after 10 s of association [6]: 0.0354 nm

B9: S309 (antibody, human IgG1, kappa)
heavy: not shown
light: DIQMTQSPSSLSASVGDRVTITCKASQDIRKYLNWYQQKPGKAPKLLIYYATSLADGVPSRFSGSGSGTDYTFTISSLQPEDIATYYCLQHGESPYTFGQGTKLEITRTVAAPSVFIFPPSDEQLKSGTASVVCLLNNFYPREAKVQWKVDNALQSGNSQESVTEQDSKDSTYSLSSTLTLSKADYEKHKVYACEVTHQGLSSPVTKSFNRGEC
notes: also called Anti-TF MORAb-066, CNT0860 (naked)
Protein A binding after 10 s of association [7]: 1.79 nm

B10: S304 (antibody, human IgG1, kappa)
heavy: not shown
light: QVQLVESGGGLVQPGGSLTLSCTASGFTLDHYDIGWFRQAPGKEREGVSCINNSDDDTYYADSVKGRFTIFMNNAKDTVYLQMNSLKPEDTAIYYCAEARGCKRGRYEYDFWGQGTQVTVSSGGGGSPLGLAGGGSELQMTQSPSSLSASVGDRVTITCRTSQSISSYLNWYQQKPGQPPKLLIYWASTRESGVPDRFSGSGSGTDFTLTISSLQPEDSATYYCQQSYDIPYTFGQGTKLEIKRTVAAPSVFIFPPSDEQLKSGTASVVCLLNNFYPREAKVQWKVDNALQSGNSQESVTEQDSKDSTYSLSSTLTLSKADYEKHKVYACEVTHQGLSSPVTKSFNRGEC
notes: also called masked adecatumumab Qg-BC2T-L9-HC / BC2-Nb-L9-LC
Protein A binding after 10 s of association [8]: 1.35 nm
EpCAM/Protein A * 1000 [9]: 18.3
EpCAM binding after 10 s of association [10]: 0.0247 nm

B11: S305 (antibody, human IgG1, kappa)
heavy: not shown
light: B10 light
notes: also called masked P41C adecatumumab Qg-BC2T-L9-HC (P41C) / BC2-Nb-L9-LC
Protein A binding after 10 s of association [8]: 1.31 nm
EpCAM/Protein A * 1000 [9]: 14.5
EpCAM binding after 10 s of association [10]: 0.0189 nm

B12: S303 (antibody, human IgG1, kappa)
heavy: not shown
light: ELQMTQSPSSLSASVGDRVTITCRTSQSISSYLNWYQQKPGQPPKLLIYWASTRESGVPDRFSGSGSGTDFTLTISSLQPEDSATYYCQQSYDIPYTFGQGTKLEIKRTVAAPSVFIFPPSDEQLKSGTASVVCLLNNFYPREAKVQWKVDNALQSGNSQESVTEQDSKDSTYSLSSTLTLSKADYEKHKVYACEVTHQGLSSPVTKSFNRGEC
notes: also called Anti-EpCAM adecatumumab (MT-201) (naked)
Protein A binding after 10 s of association [8]: 3.09 nm
EpCAM/Protein A * 1000 [9]: 599
EpCAM binding after 10 s of association [10]: 1.85 nm

B13: S312 (antibody)
heavy: not shown
light: DIQMTQSPPSLSASAGDRVTITCRASQGISSRLAWYQQKPEKAPKSLIYAASSLQSGVPSRFSGSGSGTDFTLTISSLQPEDFATYYCQQYNSYPYTFGQGTKLEIKRTVAAPSVFIFPPSDEQLKSGTASVVCLLNNFYPREAKVQWKVDNALQSGNSQESVTEQDSKDSTYSLSSTLTLSKADYEKHKVYACEVTHQGLSSPVTKSFNRGEC
notes: also called Anti-TF tisotumab (TF-011) (naked); parent antibody tisotumab
Protein A binding after 10 s of association [11]: 1.75 nm
TF/Protein A * 1000 [12]: 641
TF binding after 10 s of association [13]: 1.12 nm

B14: S313 (antibody)
heavy: not shown
light: QVQLVESGGGLVQPGGSLTLSCTASGFTLDHYDIGWFRQAPGKEREGVSCINNSDDDTYYADSVKGRFTIFMNNAKDTVYLQMNSLKPEDTAIYYCAEARGCKRGRYEYDFWGQGTQVTVSSGGGGSPLGLAGGGSDIQMTQSPPSLSASAGDRVTITCRASQGISSRLAWYQQKPEKAPKSLIYAASSLQSGVPSRFSGSGSGTDFTLTISSLQPEDFATYYCQQYNSYPYTFGQGTKLEIKRTVAAPSVFIFPPSDEQLKSGTASVVCLLNNFYPREAKVQWKVDNALQSGNSQESVTEQDSKDSTYSLSSTLTLSKADYEKHKVYACEVTHQGLSSPVTKSFNRGEC
notes: also called masked tisotumab Qg-BC2T-L9-HC / BC2-Nb-L9-LC
Protein A binding after 10 s of association [11]: 1.73 nm

B15: S314 (antibody)
heavy: not shown
light: B14 light
notes: also called masked P41C tisotumab Qg-BC2T-L9-HC (P41C) / BC2-Nb-L9-LC
Protein A binding after 10 s of association [11]: 1.37 nm
